Results: IntAct's records for PubMed 20622900

Molecular target: mk03_human MAPK3 (UniProt P27361)
Sequence (P27361 whole entry): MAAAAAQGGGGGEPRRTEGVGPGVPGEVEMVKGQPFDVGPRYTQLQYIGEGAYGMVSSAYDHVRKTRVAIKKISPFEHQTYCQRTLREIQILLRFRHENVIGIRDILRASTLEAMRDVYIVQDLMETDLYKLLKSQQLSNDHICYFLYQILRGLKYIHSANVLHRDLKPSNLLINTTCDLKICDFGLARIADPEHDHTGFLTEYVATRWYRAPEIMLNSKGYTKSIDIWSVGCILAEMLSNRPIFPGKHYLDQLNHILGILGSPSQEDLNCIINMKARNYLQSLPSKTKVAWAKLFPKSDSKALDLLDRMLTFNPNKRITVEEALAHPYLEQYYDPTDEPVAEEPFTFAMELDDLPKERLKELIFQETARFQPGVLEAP

| effect of a mutation on the interaction | Substance |
| --- | --- |
| disrupting interaction | Protein scribble homolog (Homo sapiens), Q14160 K1399A;R1400A |
| decreasing interaction | Protein scribble homolog (Homo sapiens), Q14160 R839A;R840A |
